PMC11551746, “The Swi5–Sfr1 complex regulates Dmc1- and Rad51-driven DNA strand exchange proceeding through two distinct three-stranded intermediates by different mechanisms” (Nucleic Acids Research, 2024)

Legend:
Rad51 [1] = target: T1, Rad51 (Schizosaccharomyces pombe, UniProt P36601); assay: fluorescence anisotropy of Rad51-ssDNA filament; assay type: binding; conditions: 1 mM AMP-PNP, 3 mM MgCl2, 100 mM KCl, pH 7.5, 25 °C, TAMRA-oligo dT; compared with ATP
T1 construct: purified as described previously; filament on ssDNA
T1 sequence (P36601 1-365): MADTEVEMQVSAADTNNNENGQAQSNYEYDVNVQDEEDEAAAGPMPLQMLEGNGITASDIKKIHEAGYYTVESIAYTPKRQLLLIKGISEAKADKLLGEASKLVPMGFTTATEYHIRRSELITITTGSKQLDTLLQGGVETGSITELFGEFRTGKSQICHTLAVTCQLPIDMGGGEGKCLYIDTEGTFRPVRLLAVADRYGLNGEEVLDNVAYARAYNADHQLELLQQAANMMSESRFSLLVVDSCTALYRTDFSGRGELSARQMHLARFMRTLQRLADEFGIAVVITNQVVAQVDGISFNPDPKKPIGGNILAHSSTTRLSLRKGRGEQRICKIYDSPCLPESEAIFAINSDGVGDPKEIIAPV

Dmc1 [2] = target: T2, Dmc1 (Schizosaccharomyces pombe, UniProt O42634); assay: fluorescence anisotropy of Dmc1-ssDNA filament; FRET strand exchange; assay type: binding; conditions: 1 mM AMP-PNP, 3 mM MgCl2, 100 mM KCl, pH 7.5, 25 °C, TAMRA-oligo dT (anisotropy); compared with ATP
T2 construct: purified as described previously; filament on ssDNA
T2 sequence (O42634 1-332): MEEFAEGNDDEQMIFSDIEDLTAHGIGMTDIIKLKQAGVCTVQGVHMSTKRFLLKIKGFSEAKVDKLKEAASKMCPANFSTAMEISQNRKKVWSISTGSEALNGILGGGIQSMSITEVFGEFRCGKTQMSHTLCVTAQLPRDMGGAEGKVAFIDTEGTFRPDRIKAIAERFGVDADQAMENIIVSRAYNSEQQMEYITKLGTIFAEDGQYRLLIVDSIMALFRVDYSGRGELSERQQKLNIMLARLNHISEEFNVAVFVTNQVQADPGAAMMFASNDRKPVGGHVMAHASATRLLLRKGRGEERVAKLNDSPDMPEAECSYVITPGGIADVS

Dmc1 [3] = target: T2, Dmc1; assay: FRET real-time DNA strand pairing and displacement; assay type: biochemical; conditions: 1 mM ATP, 5 mM MgCl2, 25 mM KCl, pH 7.5, 30 °C, 83-mer ssDNA, 40-83 bp dsDNA; compared with ADP
Dmc1 [4] = target: T3, Dmc1 (Schizosaccharomyces pombe? (fission …, UniProt O42634 1-332)); assay: fluorescence anisotropy; 1 mM ADP, Mg2+; Hill fit; 30 mM HEPES-KOH pH 7.5, 100 mM KCl, 3 mM MgCl2 or CaCl2, 1 mM DTT, 5% glycerol, 1 mM adenine nucleotide, 3 uM (nt) TAMRA-dT72, 25 C; conditions: protein: recombinant; label: 5' TAMRA; single-stranded
T3 sequence: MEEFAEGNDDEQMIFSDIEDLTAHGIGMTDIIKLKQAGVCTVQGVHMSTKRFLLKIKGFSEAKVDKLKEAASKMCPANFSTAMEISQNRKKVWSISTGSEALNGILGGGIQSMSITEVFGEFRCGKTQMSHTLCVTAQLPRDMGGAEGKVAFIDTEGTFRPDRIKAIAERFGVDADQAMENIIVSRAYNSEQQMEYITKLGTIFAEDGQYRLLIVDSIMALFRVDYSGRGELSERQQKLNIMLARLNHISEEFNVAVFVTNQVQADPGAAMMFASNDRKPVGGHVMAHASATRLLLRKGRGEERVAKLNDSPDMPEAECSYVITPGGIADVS

Dmc1 [5] = target: T3, Dmc1; assay: fluorescence anisotropy; 1 mM AMP-PNP, Mg2+; Hill fit; 30 mM HEPES-KOH pH 7.5, 100 mM KCl, 3 mM MgCl2 or CaCl2, 1 mM DTT, 5% glycerol, 1 mM adenine nucleotide, 3 uM (nt) TAMRA-dT72, 25 C; conditions: protein: recombinant; label: 5' TAMRA; single-stranded
Rad51 [6] = target: T4, Rad51 (Schizosaccharomyces pombe? (fission …, UniProt P36601 1-365)); assay: fluorescence anisotropy; 1 mM ATP, 3 mM Mg2+; Hill fit; 30 mM HEPES-KOH pH 7.5, 100 mM KCl, 3 mM MgCl2 or CaCl2, 1 mM DTT, 5% glycerol, 1 mM adenine nucleotide, 3 uM (nt) TAMRA-dT72, 25 C; conditions: protein: recombinant; label: 5' TAMRA; single-stranded
T4 sequence: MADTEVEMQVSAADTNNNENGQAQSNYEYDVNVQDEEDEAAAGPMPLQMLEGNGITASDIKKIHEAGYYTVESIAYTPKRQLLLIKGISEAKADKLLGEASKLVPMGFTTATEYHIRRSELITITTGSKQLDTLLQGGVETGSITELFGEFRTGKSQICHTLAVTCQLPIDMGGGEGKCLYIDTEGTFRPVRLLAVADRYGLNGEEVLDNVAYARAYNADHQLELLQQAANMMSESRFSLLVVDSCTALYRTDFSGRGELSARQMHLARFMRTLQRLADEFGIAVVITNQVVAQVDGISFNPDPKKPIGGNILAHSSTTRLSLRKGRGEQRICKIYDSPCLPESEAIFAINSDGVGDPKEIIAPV

Dmc1 [7] = target: T3, Dmc1; assay: as above; conditions: protein: recombinant; label: 5' TAMRA; single-stranded
Dmc1 [8] = target: T3, Dmc1; assay: fluorescence anisotropy; 3 mM Ca2+ in place of Mg2+, ATP?; Hill fit; 30 mM HEPES-KOH pH 7.5, 100 mM KCl, 3 mM MgCl2 or CaCl2, 1 mM DTT, 5% glycerol, 1 mM adenine nucleotide, 3 uM (nt) TAMRA-dT72, 25 C; conditions: protein: recombinant; label: 5' TAMRA; single-stranded
Dmc1 [9] = target: T3, Dmc1; assay: fluorescence anisotropy; ssDNA preincubated with Swi5-Sfr1 (0.1 uM or more), ATP?, Mg2+; Hill fit; 30 mM HEPES-KOH pH 7.5, 100 mM KCl, 3 mM MgCl2 or CaCl2, 1 mM DTT, 5% glycerol, 1 mM adenine nucleotide, 3 uM (nt) TAMRA-dT72, 25 C; conditions: protein: recombinant; label: 5' TAMRA; single-stranded

Molecule: Nc1ncnc2c1ncn2[C@@H]1O[C@H](COP(=O)(O)OP(=O)(O)NP(=O)(O)O)[C@@H](O)[C@H]1O [AMP–PNP]
- fluorescence anisotropy of Rad51-ssDNA filament (Rad51 [1]): AMP–PNP significantly stabilized the Rad51 filament
- fluorescence anisotropy of Dmc1-ssDNA filament; FRET strand exchange (Dmc1 [2]): AMP–PNP strongly stabilizes the Dmc1–ssDNA filament

Molecule: Nc1ncnc2c1ncn2[C@@H]1O[C@H](COP(=O)(O)OP(=O)(O)OP(=O)(O)O)[C@@H](O)[C@H]1O [ATP]
- FRET real-time DNA strand pairing and displacement (Dmc1 [3]): the ATP-bound form of Dmc1 is sufficient for three-stranded intermediate formation

B1: [TAMRA]dT72 (ssDNA)
DNA: TTTTTTTTTTTTTTTTTTTTTTTTTTTTTTTTTTTTTTTTTTTTTTTTTTTTTTTTTTTTTTTTTTTTTTTT
- Kd (Dmc1 [4]): 1970 nM
- Kd (Dmc1 [5]): 547 nM
- Kd (Rad51 [6]): 308 nM
- Kd (Dmc1 [7]): 1220 nM
- Kd (Dmc1 [8]): 227 nM
- Kd (Dmc1 [9]): ~510 nM
